B1: Myocardin, residues 363 to 406; numbered along this chain, Q8IZQ8 (parent)
chain: KPGPLPPNLDDLKVSELRQQLRIRGLPVSGTKTALMDRLRPFQD

± gives the uncertainty stated by the source.

Variants of B1 are the subject of this data set. Put plainly: abundance fitness (aPCA) (normalised: wild type 0, dead -1); higher = more abundant; growth selection in yeast, the domain comes from the species named. Particulars: Homo sapiens.
On to KPGPLPPNLDDHKVSELRQQLRIRGLPVSGTKTALMDRLRPFQD [L12H], for which the abundance fitness is -0.614 ± 0.14.

Consider KPGPLPPNLDDLKVSELRQQLRIAGLPVSGTKTALMDRLRPFQD [R24A], for which the abundance fitness was -0.695 ± 0.11. In the case of KPGPLPPNLDDLKVSELRQQLRISGLPVSGTKTALMDRLRPFQD [R24S], the abundance fitness is -0.881 ± 0.16. Next, KPGPLPPNLDDLKVSELRQQLRIDGLPVSGTKTALMDRLRPFQD [R24D]: -0.536 ± 0.16; KPGPLPPNLDDLKVSELRQQLRILGLPVSGTKTALMDRLRPFQD [R24L]: -0.429 ± 0.12; KPGPLPPNLDDLKVSELRQQLRIGGLPVSGTKTALMDRLRPFQD [R24G]: -0.878 ± 0.11.

For KPGPLVPNLDDLKVSELRQQLRIRGLPVSGTKTALMDRLRPFQD [P6V], the abundance fitness was -0.133 ± 0.065. For KPGPLPPNLCDLKVSELRQQLRIRGLPVSGTKTALMDRLRPFQD [D10C], the abundance fitness is 0.245 ± 0.099. Next, KPGPLPPNLVDLKVSELRQQLRIRGLPVSGTKTALMDRLRPFQD [D10V]: 0.076 ± 0.068; KPGPLPPNLFDLKVSELRQQLRIRGLPVSGTKTALMDRLRPFQD [D10F]: -0.582 ± 0.36. Next, KPGPLPPNLADLKVSELRQQLRIRGLPVSGTKTALMDRLRPFQD [D10A]: 0.178 ± 0.081; KPGPLPPNLDDLKVSELRQQLRIRGLPVSGTKTALMDTLRPFQD [R38T]: -0.316 ± 0.16.

For KPGPLPPNLDDLKVSTLRQQLRIRGLPVSGTKTALMDRLRPFQD [E16T], the abundance fitness was -0.515 ± 0.12. Next, KPGPLPPNLDDLKVSELRQQARIRGLPVSGTKTALMDRLRPFQD [L21A]: -0.037 ± 0.061; KPGPLPPNLDDLKVSELRQQLRIRGLPVSGTKTALMDRLRPVQD [F42V]: -0.211 ± 0.074. Next, KPGPLPPNLDDLKVSELRQQLRVRGLPVSGTKTALMDRLRPFQD [I23V]: -0.092 ± 0.061; KPGPLPPNLDDLKVSELRQQLRNRGLPVSGTKTALMDRLRPFQD [I23N]: -0.45 ± 0.26. Next, KPGPLPPNLDDLKVSELRQQLRQRGLPVSGTKTALMDRLRPFQD [I23Q]: -0.229 ± 0.092; KPGPLPPNLDDLKVEELRQQLRIRGLPVSGTKTALMDRLRPFQD [S15E]: 0.171 ± 0.14.

In the case of KPGPLPPNLDDLKVIELRQQLRIRGLPVSGTKTALMDRLRPFQD [S15I], the abundance fitness was -0.23 ± 0.11. For the variant KPGPLPPNLDDLKVQELRQQLRIRGLPVSGTKTALMDRLRPFQD [S15Q], the abundance fitness is -0.261 ± 0.076. As to KPGPLPPNLDDLKVSELRQQLRIRGLPVSGTKTALMDRLWPFQD [R40W], the abundance fitness is -0.731 ± 0.17.

In the case of KPGPLPPNLDDLKVSELRQQLRIRGLPVSGTKTALMDRLQPFQD [R40Q], the abundance fitness is -0.042 ± 0.2. Next, KPGPLPPNLDDLKVSELRQQLRIRGLPVSGTKTALMDRLLPFQD [R40L]: -0.284 ± 0.072. Next, KPGPLPPNLDDLKVSELRQQLRIRGLPVSGTKTALMDRWRPFQD [L39W]: -0.77 ± 0.1; KPGPLPPNLDDLKVSELRQQLRIRGLPVSGTKTALMDRQRPFQD [L39Q]: -0.465 ± 0.14; KPGPLPPNLDDLKVSELRQQLRIRGLPVSGTKTALMDRDRPFQD [L39D]: -0.283 ± 0.16. With RPGPLPPNLDDLKVSELRQQLRIRGLPVSGTKTALMDRLRPFQD [K1R], the abundance fitness was -1 ± 0.12. Turning to APGPLPPNLDDLKVSELRQQLRIRGLPVSGTKTALMDRLRPFQD [K1A], the abundance fitness is -0.671 ± 0.11.

For the variant KPGFLPPNLDDLKVSELRQQLRIRGLPVSGTKTALMDRLRPFQD [P4F], the abundance fitness is 0.755 ± 0.26.

KPGDLPPNLDDLKVSELRQQLRIRGLPVSGTKTALMDRLRPFQD [P4D]: the abundance fitness came to 0.276 ± 0.08. Next, KPGVLPPNLDDLKVSELRQQLRIRGLPVSGTKTALMDRLRPFQD [P4V]: 0.09 ± 0.07. On to KPGRLPPNLDDLKVSELRQQLRIRGLPVSGTKTALMDRLRPFQD [P4R], for which the abundance fitness was -0.059 ± 0.08. Next, KPGPLPPNLDDLKVSELRQQLRIRGLPVSGTKTALMDRLRIFQD [P41I]: -0.001 ± 0.21; KPGPLPPNLDDLKVSELRQQLRIRGLPVSGTKTALMDRLRLFQD [P41L]: -0.132 ± 0.082; KPGPLPPNLDDLKVSELRQQLRIRGLPVSGTKTALMDRLRYFQD [P41Y]: -0.455 ± 0.13. Next, KPGPLPPNLDDLKVSELRQQLRIRGLPVSGTKTALMDRLRPFFD [Q43F]: 0.028 ± 0.21; KPGPLPPNLDDLKVSELRQQLRIRGLPVSGTKTALMDRLRPFID [Q43I]: -0.109 ± 0.14. Next, KPGPLPPNLDDLKVSELRQQLRIRGLPVPGTKTALMDRLRPFQD [S29P]: -0.605 ± 0.095.

With KPGPLPPNLDDLKVSELRQQLRIRGLPVVGTKTALMDRLRPFQD [S29V], the abundance fitness is -0.097 ± 0.079. Next, KPGPLPPNLDDLKVSELRQQLRIRGLPVHGTKTALMDRLRPFQD [S29H]: -0.108 ± 0.16; KPLPLPPNLDDLKVSELRQQLRIRGLPVSGTKTALMDRLRPFQD [G3L]: -0.025 ± 0.08; KPQPLPPNLDDLKVSELRQQLRIRGLPVSGTKTALMDRLRPFQD [G3Q]: 0.295 ± 0.099. Consider KPGPLPPNLDDLKVSELRQQLRIRGLIVSGTKTALMDRLRPFQD [P27I], for which the abundance fitness was -0.374 ± 0.14. Take KPGPLPPNLDDLKVSELRQQLRIRGLMVSGTKTALMDRLRPFQD [P27M]: the abundance fitness was -0.324 ± 0.13. With KPGPLPPNLDDLKVSELRQQLRIRGLVVSGTKTALMDRLRPFQD [P27V], the abundance fitness was -0.73 ± 0.12. Take KPGPLPPNLDDLKVSELRQQLRIRGLRVSGTKTALMDRLRPFQD [P27R]: the abundance fitness is -0.344 ± 0.055. Next, KPGPLPPNLDDLKVSELRQQLRIRGLQVSGTKTALMDRLRPFQD [P27Q]: -0.05 ± 0.094; KPGPLPPNLDDLKTSELRQQLRIRGLPVSGTKTALMDRLRPFQD [V14T]: -0.222 ± 0.091. Next, KPGPLPPNLDDLKDSELRQQLRIRGLPVSGTKTALMDRLRPFQD [V14D]: -0.702 ± 0.33. Next, KPGPLPPNLDDLKLSELRQQLRIRGLPVSGTKTALMDRLRPFQD [V14L]: -0.16 ± 0.077; KPGPLPPNLDDLKASELRQQLRIRGLPVSGTKTALMDRLRPFQD [V14A]: -0.465 ± 0.14.

As for KPGPLPPNLDDLKPSELRQQLRIRGLPVSGTKTALMDRLRPFQD [V14P], the abundance fitness is -0.247 ± 0.16. Regarding KPGPLPPNLDDLKVSELRLQLRIRGLPVSGTKTALMDRLRPFQD [Q19L], the abundance fitness was -0.198 ± 0.088. Consider KPGPLPPNLDDLKVSELRYQLRIRGLPVSGTKTALMDRLRPFQD [Q19Y], for which the abundance fitness was -0.124 ± 0.14. As to KPGPLPPNLDDLKVSELRSQLRIRGLPVSGTKTALMDRLRPFQD [Q19S], the abundance fitness is -0.261 ± 0.09.

As to KPGPLPPNLDDLKVSELRTQLRIRGLPVSGTKTALMDRLRPFQD [Q19T], the abundance fitness is -0.439 ± 0.17.

In the case of KPGPLPPNLDDLKVSELRQCLRIRGLPVSGTKTALMDRLRPFQD [Q20C], the abundance fitness is -0.395 ± 0.11.

(Values after the Human Domainome abundance scans (Beltran et al. 2025).)
